Measurements: PMC4014126 (2014)

Target: NF-κB activator 1 (Act1) (UniProt Q8N7N6)
Assay: co-immunoprecipitation (anti-Myc IP, Western blot, ImageJ densitometry)
Settings: IL-17RA-deficient MEFs reconstituted by retroviral infection; treated with IL-17 for 10 min; parent: 100

NF-κB activator 1 (Act1), sequence (Q8N7N6 whole entry): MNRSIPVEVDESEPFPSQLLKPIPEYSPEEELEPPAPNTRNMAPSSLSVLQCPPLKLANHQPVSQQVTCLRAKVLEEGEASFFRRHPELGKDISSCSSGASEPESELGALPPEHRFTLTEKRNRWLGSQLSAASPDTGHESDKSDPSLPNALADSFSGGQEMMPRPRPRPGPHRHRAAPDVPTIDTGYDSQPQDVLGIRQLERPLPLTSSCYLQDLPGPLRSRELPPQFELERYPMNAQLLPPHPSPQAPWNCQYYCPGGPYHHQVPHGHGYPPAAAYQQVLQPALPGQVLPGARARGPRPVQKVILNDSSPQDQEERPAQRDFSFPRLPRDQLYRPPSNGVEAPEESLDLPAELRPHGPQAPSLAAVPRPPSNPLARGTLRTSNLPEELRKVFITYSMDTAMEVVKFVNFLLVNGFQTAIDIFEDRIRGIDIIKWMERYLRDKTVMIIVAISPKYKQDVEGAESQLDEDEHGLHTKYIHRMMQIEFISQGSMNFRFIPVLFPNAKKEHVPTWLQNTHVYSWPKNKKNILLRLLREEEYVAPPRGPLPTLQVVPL
Myc-tagged mouse IL-17RA, sequence (Q60943 32-864, stated change not applied): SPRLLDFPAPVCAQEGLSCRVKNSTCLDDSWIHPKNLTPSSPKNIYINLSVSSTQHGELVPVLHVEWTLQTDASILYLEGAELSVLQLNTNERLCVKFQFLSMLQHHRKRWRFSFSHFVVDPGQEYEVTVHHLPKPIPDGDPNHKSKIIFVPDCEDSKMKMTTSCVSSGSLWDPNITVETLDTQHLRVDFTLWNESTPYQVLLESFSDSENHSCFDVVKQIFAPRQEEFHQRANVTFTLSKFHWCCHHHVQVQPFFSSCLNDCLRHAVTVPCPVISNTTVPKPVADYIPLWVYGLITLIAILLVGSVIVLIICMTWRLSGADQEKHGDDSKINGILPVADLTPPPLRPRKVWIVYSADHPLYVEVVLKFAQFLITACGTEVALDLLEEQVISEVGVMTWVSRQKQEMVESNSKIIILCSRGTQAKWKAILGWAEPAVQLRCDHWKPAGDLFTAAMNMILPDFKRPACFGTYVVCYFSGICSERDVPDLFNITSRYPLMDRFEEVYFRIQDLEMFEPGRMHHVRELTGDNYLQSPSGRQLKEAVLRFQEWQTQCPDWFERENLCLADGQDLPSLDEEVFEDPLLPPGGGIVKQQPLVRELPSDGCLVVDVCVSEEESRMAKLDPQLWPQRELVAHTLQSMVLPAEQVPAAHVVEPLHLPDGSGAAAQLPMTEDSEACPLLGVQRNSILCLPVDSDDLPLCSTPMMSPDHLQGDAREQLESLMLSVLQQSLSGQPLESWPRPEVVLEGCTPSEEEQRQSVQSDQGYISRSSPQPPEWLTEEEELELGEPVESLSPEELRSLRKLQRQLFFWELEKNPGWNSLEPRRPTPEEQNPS

Myc-tagged mouse IL-17RA (from UniProt Q60943) T483A; N488A; M489A
percent of parent: 31
